Assays:
[1] = system: Flag-tagged rtPDE3B containing its full ORF
[2] = system: Flag-tagged rtPDE3B-137 (full ORF) S421A
[3] = system: Flag-tagged rtPDE3B-137 (full ORF) S421D

## PK-A (cAMP-dependent protein kinase)
[1]
  stimulation of cGMP hydrolytic activity by PK-A (0.03 µM cGMP, with or without PK-A and ATP): caused a much greater stimulation of activity in S421D than in S421A or the wild-type rtPDE3B
[2]
  stimulation of cGMP hydrolytic activity by PK-A (0.03 µM cGMP, with or without PK-A and ATP): caused a much greater stimulation of activity in S421D than in S421A or the wild-type rtPDE3B
[3]
  stimulation of cGMP hydrolytic activity by PK-A (0.03 µM cGMP, with or without PK-A and ATP): caused a much greater stimulation of activity in S421D than in S421A or the wild-type rtPDE3B

— patent US20030158133
